Reference: the nanobody polyreactivity screen of Harvey et al. (2022)

Assay: yeast display, Sf9 membrane polyspecificity reagent, FACS + sequencing; frameworks hold sequencing errors
Method in brief: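 Genes from sorted yeast were amplified by colony PCR, read by MiSeq 2 × 250 sequencing and filtered on CDR length. These cells carried a synthetic nanobody library in Saccharomyces cerevisiae BJ5465 and were sorted by FACS into low and high (top ~1%) gates on anti-HA and streptavidin fluorescence. Polyreactivity is labelled according to the gate of origin.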

QVQLVESGGGLVQAGGSVRLSCAASGFIFWYSAMGWYRQAPGKERELVAAISGTGGTTYYADSVKGRFTISRDNAKNTVYLQMNSLKPEDTAVYYCNFRYDSRRTAIGYAYWGQGTQETVSS
polyreactivity (PSR sort gate): low polyreactivity

EEELVESGGGIVQAGGSLRLSCAASGFIFGYNAMGWYRQAPGKERELVAAISSGDDTNYADSVKGRFTISRDNAKNTVYLQMNSLKPEDTAVYYCAAEVWTAFTLGSYWSVVDYDYWGQGTQVSVSS
polyreactivity (PSR sort gate): low polyreactivity

QVQLVESGGGLVQAGGSLRLSCAASGFIFRRYTMGWSRQAHGKERELVAAITSSGGTNYADSVKGRFTISRDNAKNTVYLQMNSLKPEDTAVYFCAAESVSSVWYDYLGQGTQVTVSS
polyreactivity (PSR sort gate): high polyreactivity

QVQLVESGGGLVQAGGSLRLSCAASGFIFATYAMGWYRQAPGKDRELVAAISRSGGSTYYADSVKGRFTISRDTAKNTVYSQMNCLKPEDTAVYYCAADSDPAPPDYDYWGQGTQVTVSS
polyreactivity (PSR sort gate): high polyreactivity

QVQLVESGGGLVQAGGSLRLSCAASGSTINYYAMGWYRQAPGKERELVAAISSGTSTYYADSVKGRFTISRDNAKNTVYLQMNSLKPEDTAVYYCARRYYYQYRYDYWGQGTQVTVSS
polyreactivity (PSR sort gate): high polyreactivity

QVQLVESGGGLVQAGGSLRLSCAASGRTFYYNTMGWYRQAPGKERELVATITSSGGRTYYADSVKGRFTISRDYAKNTVYLQMNSLKPEDTAVYYCNAALSRAFKHSTGYDYWGQGTQVTVSS
polyreactivity (PSR sort gate): low polyreactivity

QVQLVESGGGLVQAGGSLRLSCAASGRTFKGYVMGWYRQAPGKERELVAAITYGGGSTYYADSVKGRFTISRDNAKNTVYLQMNSLKPEDTAVYYCAADSIYGTKYDYWGQGTQVTVSS
polyreactivity (PSR sort gate): high polyreactivity

QVQLVESGGGLVQAGGSLRLSCAASGRIFDTNAMGWYRQAPGKERELVAAITYSGGSTYYADSVKGRFTISRDNAKNTVYLQMNSLKPEDTAVYYCARVRPYSKYAYGYWGQGTQVTVSS
polyreactivity (PSR sort gate): high polyreactivity

QVQLVESGGGLVQAGGSLRLSCAASGRIFVQNAMGWYRQAPGKEREVVAAISSRGTSTYYADSVKGRFTISRDNAKNTVYLQMNSLKPEDTALYYCAAREWRTFDYWGQGTQVTVSS
polyreactivity (PSR sort gate): low polyreactivity

QVQLVESGGGLVQAGGSLRLSCAASGGIISTNAMGWYRQAPGKERDLVAAISRRGGSTYYADSVKGRFTISRDYAKNSVYLQMNCLKPEDTAVYYCNKYLRLFSYGRGYDYWGQGTQVTVSS
polyreactivity (PSR sort gate): high polyreactivity

QVQLVESVGGLVQAGGSLRLSCAASGRIFHWYAMGWYRQAPGKERELVAAIRWTGGSTYYADSVKGRFTISRDNAKNTVYLQMNSLKPEDTAVYYCAAKGYTGIFYEMDYWGQGTQVTVSS
polyreactivity (PSR sort gate): low polyreactivity

QVQLVESGGGLVQAGGSLRLSCAASGRIFGWYAKGWYRQAPGKETELVAAISPGGSTKYADSVKGRFTISRDYAKNTVYLQMNSLKPEDTADYYFAADLFNYTTGRDYWGQGTQVTVSS
polyreactivity (PSR sort gate): low polyreactivity

QVQLVESGGGLVQAGGSLRLSCAASGFIFASYAMGWYRQAPVKERELVAAISSCGGRTYYADSVKGRFTISRDNAKNTVNLQMNSLKPEDTAVYYCAADWRFTYDYWGQGTQVTVSS
polyreactivity (PSR sort gate): high polyreactivity

QVQLVESGGGLVQAGGSLRLSCAASGSIFLRYAMGWYRQAPGKERELVAAITTGGGSTYYADSVKGRFTISRDNAKNTVYLQMNRLKPEDPAVYYCAKRAQYHWRGRDDYSYYYWGQGTQVTVSS
polyreactivity (PSR sort gate): low polyreactivity

QVQLVESGGGLVQAGGSLRLSCAASGTIFAPNAMGWYRQAPGKERELVAAISRSGGRTYYADSVKGRFTISRDNAKNTVYLQMNSLKPEDTAVYYCAADYKHQRTYGSWGQGTQVTVSS
polyreactivity (PSR sort gate): high polyreactivity

QVQLVESGGGLVQAGGSLRLSCAASGLIFARYAMGWYRQAPGKERELVAAISSSGVSTDYADSVKGRFTISRDNAKNTVYLQMNSLKPEDTAVYYCAKRTGSRVRGGKYGYWGQGTQVTVSS
polyreactivity (PSR sort gate): high polyreactivity

QVQLVESGGGLVQAGGGLRLSCAASGFIFSLYAMGWYRQAPGKERELVAAISKRGGSTNYADSLKGRFTISRDNAKNTVYLQRNSLKPDVTAVYYCAATRNYYGRYDYWGQGTQVTVSS
polyreactivity (PSR sort gate): high polyreactivity

QVQLVESGGGLVQAGGSLRLSCAASGNIFGENAMGWYRQAPGKERELVAAITRIDGNTYYADSVKGRVTISRDNAKNTVYLQMNSLKPEDTAVYYCATDEPVGRYQHNYYWGQGTQVTVSS
polyreactivity (PSR sort gate): low polyreactivity

QVQLVESGGGLVQAGGSLRLSCAASGSTFAKYAMGWYRQAPGKERELVAVISWGGGSTYYADSVKGRFTISRDNAKNTVYLQMNSLKPEDTAVYYCAAVYDEYQTTHEYDYWGQGTQVTVSS
polyreactivity (PSR sort gate): low polyreactivity

QVQLVESGGGLVQAGGSLRLSCAASGRTFAFYAMGWYRQAPGKERELVASISSSGDRTYYADSVKGRFTISRDNAKNTVYLQMNSLKPEDTAVYYCAARWRYTYYYWGQGTQVTVSS
polyreactivity (PSR sort gate): high polyreactivity

QVQLVESGGGLVQAGGSLRLSCAASGSIFRDNTMGWYRQAPGKERELVAAISYSGGGTYYADSVKGRVTISRDNAKNTVYLQMNSLKPEDTAVYYCAKRTYPWYYREIPYGYWGQGTQVTVSS
polyreactivity (PSR sort gate): high polyreactivity

QVQRVESGGGLVQAGGSLRLSCAASGRTFYGYAMGWYRQAPGKDRELVASISWSTGSTHYADSVKGRFTISRVNAKNTVYVQMNSLKPEATAVYYCAAPFWRDSYVQIDYDYWGQGTQVTVSS
polyreactivity (PSR sort gate): low polyreactivity

QVQLVESGGGLVQAGGSIRLIWAASGSTVPSYTMGWYRQAPGKERELVAAISGSGGSTYYADSVKGRFTISRDNAKNTVYLQMNSLKPEDTAVYSCAADYRLQLSYAFGDDYWGQGPQVTVSS
polyreactivity (PSR sort gate): low polyreactivity

QVQLVESGGGLVQAGGSLRLSCAASGNIFYGYAMGWYRQAPGKERELVAAISRAGRTYYADSVKGRFTISRDNAKNTVYLQMNSLKPEDTAVYYCAADFYYASYVRYNYWGQGTQVTVSS
polyreactivity (PSR sort gate): low polyreactivity

QVHLVESGGGLVQAGGSLRLSCAASGRIFAGYAMGWYRQAPGKERELVATITRGGSTNYADSVKRPFTISRDNAKNTVYLQMNSLKPEDTAVYYCADVTWYEEYDSWGQGTQVTVSS
polyreactivity (PSR sort gate): low polyreactivity

QVQLVESGGGLVQAGGSLRLSCAASGRIFGYYVMGWYRQAPGKDRELVATISRVGTTNYADSVKGRFTISRDNAKNTVYLQMNSLKPEDTAVYYCNADYTGHRGGNDYWGQGTQVTVSS
polyreactivity (PSR sort gate): low polyreactivity

QVQLVESGGGLVQAGGSLRLSCAASGSIFDSYAMGWYRQAPGKEWELVAAISGNSDSTYYADSVKGRFTISRDNAKNTVYLQMNSLKPEDTAVYYCAKEGGNGYDYWGQGTQVTVSS
polyreactivity (PSR sort gate): low polyreactivity

QVQLVESGGGLVQAGGSLRLSCAASGRIFFRNAMGWYRQAPGKDRELVAAITWNGGSTYYADSVKGRFTISRDNAKNTVYLQMNSLKPEDTAVYYCATKTLSRTRTYYYWGQCTQVTVSS
polyreactivity (PSR sort gate): high polyreactivity

QVQLVESGGGLVQAGGSLRLSCAASGRSFSYAMGWYRQAPGKERELVAAISYGGGGTYYADSVKGRFTISRDNAKNTVYLQMNSLKPEDTAVYYCNARQYRPWYPPYGYDYWGQGTQVTVSS
polyreactivity (PSR sort gate): low polyreactivity

QVQLVESGGGLVQAGGSLRLSCAASGRIFWYYGMGWYRQAPGKERELVAAITSGGRTYYADSVKGRFTISRDNAKNTVYLQMNSLKPEDTAVYYCAKGYVRYPSKGYTFDYWGQGTQVTVSS
polyreactivity (PSR sort gate): high polyreactivity

QVQLVESGGGLVQAGGSLPLSCAASGSTFTYYAMGWYRKAPGKEGELVARITWTGGRTYYADSVKGRFTISRGNAKNTVYLQMNSVKTEDTAVYYCNALPYFFETQYDYWGQGTQVTVSS
polyreactivity (PSR sort gate): low polyreactivity

QVQLVESGGGLVQAGGSLRLSCDASGSIFDHNSMGWYRQAPGKERELVAAISSNGVRTYYADSVKGRFTISRDNAKNTVYLQMNSLKTEDTAVYYCNAQRFVGLNVYGYDYWGQGTQVTVSS
polyreactivity (PSR sort gate): high polyreactivity

QVQLQESGGGLVQAGGSLRLSCAASGTISPLPAMGWYRQAPGKEREFVAGIDTGAITNYADSVKGRFTISRDNGKNTVYLQMNSLNPEDTAVYYCAVFRGAYDYYEGYYTYWGQGTQVTVSS
polyreactivity (PSR sort gate): low polyreactivity

QVQLVESGGGLVQAGGSLRLSCAASGRTFVYYAMGWYRQAPGKERELVAAISSGGSTYYADSVKGRFTISRDNAKNTVYLQMNSLKPEDTAVYYCNALRYTHYLLTYGYWGQGTQVTVSS
polyreactivity (PSR sort gate): high polyreactivity

QVQLVESGGGLVQAGGSLRLSCAASGITFFYNAMGWYRQAPGKERELVADITNSGSTYYADSVKGRFTISRDNAKNTVYLQMNSLKPEDTAVYYCAAGQAYDYFVYYPDDYWGQGTQVTVSS
polyreactivity (PSR sort gate): low polyreactivity

QVQLVESGGGLVQAGGSLRLSCAASGRIFRRYAMGWYRQAPGKERELVASISSGGSTNYADSVNGRFTISRDNAKNTVYLQMNSLKPEDTAVYYCAASYPSIYYYRYDYWGKGTQVTVSS
polyreactivity (PSR sort gate): high polyreactivity

QVQLVESGGGVVQAGGSLRLSCAASGFIFYQYAMGWYRQAPGKERELVAAITSRGGRTYYADSVKGRFTISRDNAKNTVYLQMNSLKPEDTAVYYCAVRKASDYYYWGQGTQVTVSS
polyreactivity (PSR sort gate): high polyreactivity

QVQLVETVGGLVQAGFSLRLSCAASGFTYGAYAMGLYRQPPGKERELVAAITLRTGGSTYYADSVKGRFTISRDNAKYTVYLQMNSLKPEDTAVYYCAARVGLSPGGYGYWGQGTQVTVSS
polyreactivity (PSR sort gate): high polyreactivity

QVQLVESAGGLVQAGGSLRLSCSASGLTFVPNAMGWYRQAPGKERELVATISSSGGRTTYADSVKGRFTISRDKAKNTVYLQMNSLKPEDTAVYYCADQGYWTGYDYWGQGTQVTVSS
polyreactivity (PSR sort gate): high polyreactivity

QVQLVESGGGLVQAGGSLPLSCAASGRIFNSNAMGWYRQAPGKERELVAAIPISGSTNYADSVKGRFTISRDNAKNTVYFQMNSLKPEDTAVYYCAAQRTSHGRGVNGYVKYGYWGQGTIVTVSS
polyreactivity (PSR sort gate): high polyreactivity

QVQLVESGGGLVQAGGSLRLSCAASGSIFDENAMGWYRQAPGKERELVAAITGSGVRTYYADSVKGRFTISRDNAKNTVYLQMNSLKPEDTAVYYCNRVKSGSYKFGYWGQGTQVTVSS
polyreactivity (PSR sort gate): high polyreactivity

QVQLVESGGGLVQAGGSRRLTCAASGFTFEYYAMGWYRQAPGTERELVAAISYSGSSTYYADSVKGRFTISRDNAKNTVYLQMNSLKPEDTAVYYCAARAVSRRFDYWGQGTQVTVSS
polyreactivity (PSR sort gate): high polyreactivity

QVQLVESGGGLVQAGGSLRLIFAASGIIFGRYPMGWYRPAPGKERELVAAITSGGSTSYADSVKGRFTISRDNAKNTVYLQMNSLKPEDTAVYYCAVVFVWGWPGYYWGQGTQVTVSS
polyreactivity (PSR sort gate): high polyreactivity
